In the test the target is human TNFα (human, UniProt P01375 77-233). Put plainly: cell-based or functional assay.

The results in this text go back to US20080206239A1 (ANTITOPE, published 2008).

Positions count from the first letter of the chain named.

Sequence of human TNFα (P01375 77-233 limits assumed): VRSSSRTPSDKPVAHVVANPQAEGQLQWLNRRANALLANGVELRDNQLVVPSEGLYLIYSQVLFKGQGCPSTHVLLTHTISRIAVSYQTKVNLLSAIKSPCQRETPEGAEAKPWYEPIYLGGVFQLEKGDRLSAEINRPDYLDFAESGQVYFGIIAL

B1: antibody of heavy chain SEQ. ID. No. 7 and light chain SEQ. ID. No. 2 (antibody, human IgG1, V domains shown)
VH: EVQLVESGGGLVQPGGSLKLSCAASGFIFSNHWMNWVRQAPGKGLEWVAEIRSKSINSATHYAESVKGRFTISRDDSKSIVYLQMNSLKTEDTGVYYCSRNYYGSTYDYWGQGTTVTVSS
VL: DILLTQSPAILSVSPGERVSFSCRASQFVGSSIHWYQQRTNGSPRLLIKYASESMSGIPSRFSGSGSGTDFTLSINTVESEDIADYYCQQSHSWPFTFGSGTNLEVK
In the case of B1, the “Ratio of Activities compared to Chimeric Antibody (fold difference, WEHI-164 protection assay at 25 ng/ml)” value was determined as 1.02 fold.

B2: antibody of heavy chain SEQ. ID. No. 1 and light chain SEQ. ID. No. 4 (antibody, human IgG1, V domains shown)
VH: EVKLEESGGGLVQPGGSMKLSCVASGFIFSNHWMNWVRQSPEKGLEWVAEIRSKSINSATHYAESVKGRFTISRDDSKSAVYLQMTDLRTEDTGVYYCSRNYYGSTYDYWGQGTTLTVSS
VL: DILLTQSPAILSLSPGERATLSCRASQFVGSSIHWYQQKTNQSPKLLIKYASESMSGIPSRFSGSGSGTDFTLTINSLESEDAADYYCQQSHSWPFTFGQGTNLEIK
Regarding B2, the “Ratio of Activities compared to Chimeric Antibody (fold difference, WEHI-164 protection assay at 25 ng/ml)” value stood at 1.51 fold.

B3: Composite Human Antibody of heavy chain SEQ. ID. No. 3 and light chain SEQ. ID. No. 11 (antibody, human IgG1, V domains shown)
VH: B1 VH with A23V, N86T, S87D, K89R
VL: B2 VL with I10T, N41D, S80A, N103R
Consider B3, for which the “Ratio of Activities compared to Chimeric Antibody (fold difference, WEHI-164 protection assay at 25 ng/ml)” value amounted to 15.2 fold.

B4: antibody of heavy chain SEQ. ID. No. 3 and light chain SEQ. ID. No. 2 (antibody, human IgG1, V domains shown)
VH: B1 VH with A23V, N86T, S87D, K89R
VL: B1 VL
As to B4, the “Ratio of Activities compared to Chimeric Antibody (fold difference, WEHI-164 protection assay at 25 ng/ml)” value was found to be 1.38 fold.

B5: Composite Human Antibody 5/10 (antibody, human IgG1, V domains shown)
VH: B1 VH with A23V, S87D
VL: B2 VL with I10T, S80A, N103R
On to B5, for which the “Ratio of Activities compared to Chimeric Antibody (fold difference, WEHI-164 protection assay at 25 ng/ml)” value worked out at 1.17 fold.

B6: Composite Human Antibody of heavy chain SEQ. ID. No. 5 and light chain SEQ. ID. No. 11 (antibody, human IgG1, V domains shown)
VH: B1 VH with A23V, S87D
VL: B2 VL with I10T, N41D, S80A, N103R
Consider B6, for which the “Ratio of Activities compared to Chimeric Antibody (fold difference, WEHI-164 protection assay at 25 ng/ml)” value is 196 fold.

B7: primary Composite Human Antibody (heavy chain SEQ. ID. No. 3 and light chain SEQ. ID. No. 4) (antibody, human IgG1, V domains shown)
VH: B1 VH with A23V, N86T, S87D, K89R
VL: B2 VL
In the case of B7, the “Ratio of Activities compared to Chimeric Antibody (fold difference, WEHI-164 protection assay at 25 ng/ml)” value amounted to 2.28 fold.

B8: Composite Human Antibody of heavy chain SEQ. ID. No. 6 and light chain SEQ. ID. No. 9 (antibody, human IgG1, V domains shown)
VH: B1 VH with A23V
VL: B2 VL with I10T, N103R
With B8, the “Ratio of Activities compared to Chimeric Antibody (fold difference, WEHI-164 protection assay at 25 ng/ml)” value was found to be 1.77 fold.

B9: antibody of heavy chain SEQ. ID. No. 5 and light chain SEQ. ID. No. 2 (antibody, human IgG1, V domains shown)
VH: B1 VH with A23V, S87D
VL: B1 VL
For the molecule B9, the “Ratio of Activities compared to Chimeric Antibody (fold difference, WEHI-164 protection assay at 25 ng/ml)” value was 1.24 fold.

B10: Composite Human Antibody 7/9 (antibody, human IgG1, V domains shown)
VH: B1 VH
VL: B2 VL with I10T, N103R
Consider B10, for which the “Ratio of Activities compared to Chimeric Antibody (fold difference, WEHI-164 protection assay at 25 ng/ml)” value was 0.95 fold.

B11: Composite Human Antibody of heavy chain SEQ. ID. No. 6 and light chain SEQ. ID. No. 10 (antibody, human IgG1, V domains shown)
VH: B1 VH with A23V
VL: B2 VL with I10T, S80A, N103R
Regarding B11, the “Ratio of Activities compared to Chimeric Antibody (fold difference, WEHI-164 protection assay at 25 ng/ml)” value came out at 1.63 fold.

B12: antibody of heavy chain SEQ. ID. No. 6 and light chain SEQ. ID. No. 2 (antibody, human IgG1, V domains shown)
VH: B1 VH with A23V
VL: B1 VL
Take B12: the “Ratio of Activities compared to Chimeric Antibody (fold difference, WEHI-164 protection assay at 25 ng/ml)” value is 1.2 fold.

B13: Composite Human Antibody of heavy chain SEQ. ID. No. 6 and light chain SEQ. ID. No. 11 (antibody, human IgG1, V domains shown)
VH: B1 VH with A23V
VL: B2 VL with I10T, N41D, S80A, N103R
Consider B13, for which the “Ratio of Activities compared to Chimeric Antibody (fold difference, WEHI-164 protection assay at 25 ng/ml)” value was 134 fold.

B14: Composite Human Antibody 7/10 (i.e. containing SEQ. ID. No.s 7 and 10) (antibody, human IgG1, V domains shown)
VH: B1 VH
VL: B2 VL with I10T, S80A, N103R
Regarding B14, the “Ratio of Activities compared to Chimeric Antibody (fold difference, WEHI-164 protection assay at 25 ng/ml)” value came out at 0.98 fold.

B15: Composite Human Antibody of heavy chain SEQ. ID. No. 3 and light chain SEQ. ID. No. 10 (antibody, human IgG1, V domains shown)
VH: B1 VH with A23V, N86T, S87D, K89R
VL: B2 VL with I10T, S80A, N103R
For the molecule B15, the “Ratio of Activities compared to Chimeric Antibody (fold difference, WEHI-164 protection assay at 25 ng/ml)” value is 2.51 fold.

B16: Composite Human Antibody of heavy chain SEQ. ID. No. 3 and light chain SEQ. ID. No. 9 (antibody, human IgG1, V domains shown)
VH: B1 VH with A23V, N86T, S87D, K89R
VL: B2 VL with I10T, N103R
Turning to B16, the “Ratio of Activities compared to Chimeric Antibody (fold difference, WEHI-164 protection assay at 25 ng/ml)” value was 2.14 fold.

B17: antibody of heavy chain SEQ. ID. No. 1 and light chain SEQ. ID. No. 9 (antibody, human IgG1, V domains shown)
VH: B2 VH
VL: B2 VL with I10T, N103R
In the case of B17, the “Ratio of Activities compared to Chimeric Antibody (fold difference, WEHI-164 protection assay at 25 ng/ml)” value was determined as 1.28 fold.

B18: Composite Human Antibody of heavy chain SEQ. ID. No. 5 and light chain SEQ. ID. No. 9 (antibody, human IgG1, V domains shown)
VH: B1 VH with A23V, S87D
VL: B2 VL with I10T, N103R
Take B18: the “Ratio of Activities compared to Chimeric Antibody (fold difference, WEHI-164 protection assay at 25 ng/ml)” value is 1.32 fold.

B19: Composite Human Antibody of heavy chain SEQ. ID. No. 5 and light chain SEQ. ID. No. 4 (antibody, human IgG1, V domains shown)
VH: B1 VH with A23V, S87D
VL: B2 VL
B19: the “Ratio of Activities compared to Chimeric Antibody (fold difference, WEHI-164 protection assay at 25 ng/ml)” value was found to be 1.28 fold.

B20: Composite Human Antibody of heavy chain SEQ. ID. No. 7 and light chain SEQ. ID. No. 11 (antibody, human IgG1, V domains shown)
VH: B1 VH
VL: B2 VL with I10T, N41D, S80A, N103R
B20: the “Ratio of Activities compared to Chimeric Antibody (fold difference, WEHI-164 protection assay at 25 ng/ml)” value amounted to 106 fold.

B21: Composite Human Antibody 7/4 (antibody, human IgG1, V domains shown)
VH: B1 VH
VL: B2 VL
In the case of B21, the “Ratio of Activities compared to Chimeric Antibody (fold difference, WEHI-164 protection assay at 25 ng/ml)” value stood at 1.05 fold.

B22: antibody of heavy chain SEQ. ID. No. 1 and light chain SEQ. ID. No. 11 (antibody, human IgG1, V domains shown)
VH: B2 VH
VL: B2 VL with I10T, N41D, S80A, N103R
Consider B22, for which the “Ratio of Activities compared to Chimeric Antibody (fold difference, WEHI-164 protection assay at 25 ng/ml)” value is 16.9 fold.

B23: Composite Human Antibody of heavy chain SEQ. ID. No. 6 and light chain SEQ. ID. No. 4 (antibody, human IgG1, V domains shown)
VH: B1 VH with A23V
VL: B2 VL
For the molecule B23, the “Ratio of Activities compared to Chimeric Antibody (fold difference, WEHI-164 protection assay at 25 ng/ml)” value turned out to be 1.38 fold.

B24: antibody of heavy chain SEQ. ID. No. 1 and light chain SEQ. ID. No. 10 (antibody, human IgG1, V domains shown)
VH: B2 VH
VL: B2 VL with I10T, S80A, N103R
Take B24: the “Ratio of Activities compared to Chimeric Antibody (fold difference, WEHI-164 protection assay at 25 ng/ml)” value amounted to 1.31 fold.
